{"source": "paper PMC7140434", "origin": "cited, not measured here", "target": "emerin (Homo sapiens) (UniProt P50402)", "sequence (P50402 whole entry)": "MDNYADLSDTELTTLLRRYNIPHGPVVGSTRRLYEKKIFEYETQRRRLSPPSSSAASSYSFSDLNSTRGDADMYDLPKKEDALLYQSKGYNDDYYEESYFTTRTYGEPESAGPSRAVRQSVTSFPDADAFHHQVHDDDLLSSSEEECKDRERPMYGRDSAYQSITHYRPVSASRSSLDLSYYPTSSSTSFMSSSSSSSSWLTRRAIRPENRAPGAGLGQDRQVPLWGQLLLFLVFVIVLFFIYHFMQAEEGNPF"}
{"substance": "HDAC3 (from UniProt O15379)", "values": [{"measurement": "Kd", "value": 7.3, "unit": "µM"}]}
